The source of these data is the DeepSol protein solubility set.

This data set can be described thus: soluble on expression in E. coli; label from the status in PepcDB or PDB records.
“DIVMTQSPLSLPVTPGEPASISCRSSQSIVHSNGHTYLEWYLQKPGQSPRLLIYQVSTRFSGVPDRFSGSGSGTDFTLKISRVEAEDVGVYYCFQASLVPLTFGQGTKLEIKRTVAAPSVFIFPPSDEQLKSGTASVVCLLNNFYPREAKVQWKVDNALQSGNSQESVTEQDSKDSTYSLSSTLTLSKADYEKHKVYACEVTHQGLSSPVTKSFNRGECAAADYKDDDD”: the “soluble on expression in E. coli” value is “soluble”.

As to “MGSDKIHHHHHHMKPEAYPHPVKVVELVETHISWVLLTGSYAYKLKKAVHLDFVDATTLKQRLHFCQEELRLNRRLAPDLYLGVTRILESVDGAKVLDENFELNDPSTKGVVDVAVKMRQFPVSRLLSVYLSDGVLKTESLKRLAFELAGFHLSVKTASADGDFGGFDAVINPVHANLRVLDQLTLTEPLELWLEEHRAWIKSIQPELAFRFKQRLNAGAIRECHGDLHVGNIHLNNDESLEVFDAIDFNPSLRWIDPISEMAFLVMDFEVHDHQGDAMVILNEWLEHTGDYKALDLWPWYSAYRALVRAKVSGLQWQQLCSQSQHHSVDQQHLQRLLKDLNLYIQRAREVQQTKSAGIVLMHGLSGSGKSFLSEQLYQQLPAVRLRSDIERQRAFGRRPLHKLLGFEKGSMTSVGIKPLFQGDPYRPEVTQWLFDQCLPALTQSCLSSGYTTIVDATFLRERERQRMFVLARQQGCPIAIVACECSDFTAQERIATRMGIGTDPSEADLSVRELQKAWIEPLTTDEQDLTVRFTEKTPISIGLERLRVLLNP”, the “soluble on expression in E. coli” value is recorded as “not soluble”.

As for “MIEFVYPHTQLVAGVDEVGRGPLVGAVVTAAVILDPARPIAGLNDSKKLSEKRRLALYEEIKEKALSWSLGRAEPHEIDELNILHATMLAMQRAVAGLHIAPEYVLIDGNRCPKLPMPAMAVVKGDSRVPEISAASILAKVTRDAEMAALDIVFPQYGFAQHKGYPTAFHLEKLAEHGATEHHRRSFGPVKRALGLAS”, the “soluble on expression in E. coli” value was “soluble”.

For the sequence “MQKLKQQVFDANMDLPRYGLVTFTWGNVSAIDRERGLVVIKPSGVAYETMKVDDMVVVDMDGKVVEGRYRPSSDTATHLALYQRYPSLGGVVHTHSTHATAWAQAGMAIPALGTTHADYFFGDIPCTRALSEEEVQGEYELNTGKVIIETLGEVEPLHTPGIVVYQHGPFAWGKDAHDAVHNAVVMEEVARMAWIARGINPALNPIDDYLMNKHFMRKHGPNAYYGQK”, the “soluble on expression in E. coli” value was “not soluble”.

Turning to “MAGPSLVEVAAAVLIRPDDSFLLACRPDGKPYAGYWEFPGGKIETGESPLQALARELDEELGITVRQATPWLTRTFSYPHATVRLRFYRVTDWHGELTPRERQQFAWQTAENITVSPLLPANTPILRSLALPSIYAVTRTVETDIEASLLSIGQTLGNGVKLLQIRQKAMSHDQLEHFSRTALQLARSYQATVLINENIPLAQTLQADGVHLTAAQLRSLHSRPAVNWCGASCHNEQELQRAERLGVDFVTLSPVQPTLSHPGAAALGWKEFAALIRDYPLPVYALGGLLPADLETAREYGAHGIAMMRSILEHHHHHH”, the “soluble on expression in E. coli” value is listed as “not soluble”.

Turning to “MAEGERLYLCGEFTKAIQSFTNALHLQSGDKNCLVARSKCYLKMGDLEKSLNDAEASLRNDPTFCKGILQKAETLYTMGDFEFALVFYHRGYKLRPDREFKVGIQKAQEAINNSVGSPSSIKLENKGDLSFLSKQAESKKAQQKHLPIKQLSYSTKHEIKRKGSLKSEKTVRQLLGELYVDKEYLEKLLLDEDLIKGTIKSGLTVEDLIMTGINYLDTRSNFWRQQKPIYARERDRKLMQEKWLRDRKRSPSQTAHYILKSLEDIDMLLTSGSADGSLQKAEKVLKKVLEWNQEEVPNKDELVGNLYSCIGNAQIELGQMVAALQSHRKDLEIAKEHDLPDAKSRALDNIGRVFARVGKFQQAIDVGGEDPSSQNHPGEDLALPRDWPLLLGAGPGVAGPELWGKVSAVR”, the “soluble on expression in E. coli” value is recorded as “soluble”.

In the case of “MQRRGQLSRRLVNSADRDPSDENSLSRAPAPACTSRGTHVVETTSLKRHSKVLRSQDASGTAESVNSQTPDDEVDHTLWTLVREVSDAEAAFWALRNDSRLLGFVLRSQLLALVHDDSSVTDFLEAAQQPTDVGDVQAEFILCWVPVPGGPAILWRADYQRLIEEQVARRLSELEDPARKAALWGTTREQVERDTHIRAADGSCWLRTLPCPPSVIRALTQGQKALVQQVKRMGRYGRLPLHRAELLRLSRTCFSARFHILDAVGCGTLALDAQNTLSKEPYLCLPEVRTTNIVDSGEIGF”, the “soluble on expression in E. coli” value was “not soluble”.

Take “MSLRLEDIQAFLNVVELGSISAAAERMSLSKSVISKRVSDLERHLGVRLLYRSTRNVEPTEAGGFFYKSAKASLQDLNNAAESVALRENDLCGELRVMAPMSFGTLWLGPLVMEFMARNPRLEVVLQLDDRIVDFEKEGYDLAIRITRLQDSSLIARQLGTSRRVVCCSPEYLERHGPLQRIEDILCHPCIGYSHNTPSQLWSFEPRVAGEPARMITPRGRFNTNNGQTMRDAAVRGLGLAMLPLFIAAEDLAAGRLVEALPQERPLDDLIYAMYSRAATLSPKVKLFVQFLQQALGSPPWGVR”: the “soluble on expression in E. coli” value is given as “not soluble”.

“MEKADIEAIFARSRFISAMNLEILDIDHAGSRFSVRMPLQDTYERGAPGTKQFHGGALAALIDVVGDFAIGMLVGGGVPTMNLRIDYLRPAVGDYVDGVAVVRKAGKSAAVVDIDILCPAGKLVAIGRGTYVPITGLEHHHHHH”: the “soluble on expression in E. coli” value was “not soluble”.

With “MIATLLSSLLLTGPISAGAETQGLLPAQDLLPDIGTSAGATLSIDQEMAMGDFYVRQMRASAPLIYDPLLTQYINTLGNRLVANANSVRTPFHFYLVNNDQINAFAFFGGNVVLHSALFRYTDNESELASVLAHEISHVTQRHLARAMEEQQRLAPLTWVGVLGSILLTMASPQAGMAGLSGTLAGAQQGIISFTQGNEQEADRIGIQVLQRSGFDPQAMPNFLQKLADQSRYVSKPPEMLLTHPLPDSRLSDARNRANQMKPHPTASSQDYLFAKMRILGMYGADENSLTPELLDKLSKGTVREQLAAKYGQAVQLYQAKKYDEARNLLQPLLAQQPGNIWFLDLMTDIDLGQNKSAAAIARLQNAMVKQNDEPVLQLNLANAYVQGRQPAAAIKLLHRYTFAYPNDPNGWDLLAQATATQGLRDQELAARAESLALSGKLTQAIGLLSDASARVKLGSLEQARYDARIDQLRRLNERFRKYQKS”, the “soluble on expression in E. coli” value was “not soluble”.

Consider “MSRVPYGYEIIQLLEQLAPKQLAMEGDRIGLQIGTLNKPVKKVMIALDVLEDVVVEAIDQQVDLIIAHHPPLYRPLKQLLTDDGHGRMIAACIKHDIAVYAAHTNLDVADGGLNDWLAEALGLNDTAVLVPTYTEPLKKLVVYVPVTHAEVVRKALGDAGAGHIGRYSHCTFNSRGVGTFLPHEGARPFIGEQGRLEEVEEVRIETIVPASLEREAIQAMLAVHPYEEVAYDIYPLDNEGRRFGLGRIGRLPQPVTLGAFAEQVKTAFSVPAVRVVGRLDDLVQTVAVLGGDGNKFVAAAASAGADVYVTGDVYYHTAHDAQALGLHIIDPGHNVEKIMKEGVARYLITELSKRQWEAEVVASSVHTDPFQFV”, for which the “soluble on expression in E. coli” value is listed as “not soluble”.

In the case of “GRTVVVLGGGISGLAASYHLSRAPCPPKVVLVESSERLGGWIRSVRGPNGAIFELGPRGIRPAGALGARTLLLVSELGLDSEVLPVRGDHPAAQNRFLYVGGALHALPTGLRGLLRPSPPFSKPLFWAGLRELTKPRGKEPDETVHSFAQRRLGPEVASLAMDSLCRGVFAGNSRELSIRSCFPSLFQAEQTHRSILLGLLLGAGRTPQPDSALIRQALAERWSQWSLRGGLEMLPQALETHLTSRGVSVLRGQPVCGLSLQAEGRWKVSLRDSSLEADHVISAIPASVLSELLPAEAAPLARALSAITAVSVAVVNLQYQGAHLPVQGFGHLVPSSEDPGVLGIVYDSVAFPEQDGSPPGLRVTVMLGGSWLQTLEASGCVLSQELFQQRAQEAAATQLGLKEMPSHCLVHLHKNCIPQYTLGHWQKLESARQFLTAHRLPLTLAGASYEGVAVNDCIESGRQAAVSVLGTEPNS”, the “soluble on expression in E. coli” value is “soluble”.

As for “MSLYVSKLFTSQQWRELKLISYVTENADAIGVKDKELSKALNISMLTLQTCLTNMQFMKEVGGITYKNGYITIWYHQHCGLQEVYQKALRHSQSFKLLETLFFRDFNSLEELAEELFVSLSTLKRLIKKTNAYLTHTFGITILTSPVQVSGDEHQIRLFYLKYFSEAYKISEWPFGEMLNLKNCERLLSLMIKEVDVRVNFTLFQHLKILSSVNLIRYYKGYSAVYDNKKTSHRFSQLIQSSLEIQDLSRLFYLKFGLYLDETTIAEMFSNHVNDQLEIGYAFDSIKQDSPTGCRKVTNWVHLLDELEIRLNLSVTNKYEVAVILHNTTVLKEEDITANYLFFDYKKSYLNFYKQEHPHLYKAFVAGVEKLMRSEKEPISKELTNQLIYAFFITWENSFLKVNQKDEKIRLLVIERSFNSVGNFLKKYIGEFFSITNFNELDALTIDLEEIEKQYDVIVTDVMVGKSDELEIFFFYKMIPEAIIDKLNCVFKHQLCRQEGHHHHHH”, the “soluble on expression in E. coli” value is listed as “not soluble”.

As to “MTEFFSQKQIDEIRECFNFYSTSGVLRTDSQLRCALRSLGYSPTASKTDIYFKKLNKKPIEFATFLDICKDEQNSPNPLTEIIKALSGLDRNKTRAMPSRELAAILSHVGEQMSPEEIKYLLSKVEVNGMVPHQALIEYISK”, the “soluble on expression in E. coli” value was “not soluble”.

For the sequence “MAHHHHHHMPSAPTCQHGSYHQCECYGHNTQLPNYRHDISNPRTLQGYYAPNGGCPCPATCGAEKHGLYCSDRGADASAMPKLTFRAADGPHTVHSASDVDGNGRDPATSIRTAFPNSRNYGGTVAQRGPTTLSTRAQLSASRKARAEAKREERAQDRKNFLRGVLRDEMLARMDAEGKRAALEADTGLMGTHHGEEYEANQRAAGSMRGGLDSTSRDPDTVLTLGEQYREIMDELEYVADQPVGSKYNIIRLHYLVEEEDRLNRLRLQERIRKTAEAMQSKK”, the “soluble on expression in E. coli” value is on record as “not soluble”.

On to “MNQPFLSVVIATFNVAEVLRECLHSLASQTFRDFEVVIQDGASTDGTLAVAQEAAGRLPRLSLASVADSGIYDAWNRALPRVTGDWVLFLGSDDTLAGPDVLAQCARRLADLPPQVLYACGDALEVYPDGSSRAVTCTAEGATRRMADHIPFCHSSLWHRACLFEARHFDATLRIAADYDLICRTWPHDGVGHTLGITVTHMGVGGVSSSPAHRLRTQWELVRVAARHGHGAFSRRRLVPLCKAVGLWVLCRLAGRRASVMLDRLRVMRGLPPCWTTADPARVGGRDSARGDALEHHHHHH”, for which the “soluble on expression in E. coli” value is on record as “not soluble”.

“MAHHHHHHMFMVDTDGSAISYHIPVSPFVPLQHDKIDVTTVNRLANFGMRFAMEHGWCYNRHSGDAHSNYASEAVEEGYVESGEDVTVFFAGVDVELVGEFPKFDGKITPASVFFLGQFWISHVGKSSFGVYGKIFRYEAADEKNKFPIGVFKLTGVNVSKKSRRPVPIPKERAEMLLETMRRHQLNTSLPLVVRIDVADFLSRSGLFTDTTYCKLVDKMATYASVTPLTVTYRREFHIRQSDIDFNRHVNQMALIQFVINTFRSALLDQTTVFPRLLDVGVDAIVGDLLLRRLHIDYIRETPMGHQSVAVALFFAEDSSRDAVIASTPESRGNQLAELCFLAQGIPGDGSPSYIAAVGKLYFFC”: the “soluble on expression in E. coli” value is on record as “not soluble”.

For “KSKLGSKLNLIRNYKNLGITLNYKNGFKNCKGEYIAVLEGDDYWIQKSKLKRQVSFLESNRDCSLVFNKIVLDYGDEKINNLIYPFNDIRKKFSARELVRSNFIQNFSCCMYRKSSIRKLRESIYDMVVYDWMFNMAVAQFGLIGYIPNYMTSHRILKSGLWSGKSKMENLQMISKCIDQYDSFFKYKYRKEFSQNKQEVLQALRRLVMVNENG”, the “soluble on expression in E. coli” value is given as “not soluble”.
